The chains are these.
T1: SCOC aa 11–25 LIR peptide (human, reading uncertain)
T1 construct: SCOC isoform 3 aa 11-25; also called SCOC LIR motif (aa 11–25); source: synthetic peptide
T1 peptide: {Biotin-linker}-DSTFTNISLADDIDH-NH2

T2: SCOC pS12 LIR peptide (human, phosphoserine at 12; biotin-linker on the N-terminus; C-terminal amide)
T2 construct: SCOC isoform 3 aa 6-25; source: synthetic peptide
T2 peptide: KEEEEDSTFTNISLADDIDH

T3: SCOC aa 6–18 LIR peptide (human, reading uncertain)
T3 construct: SCOC isoform 3 aa 6-18; source: synthetic peptide
T3 peptide: {Biotin-linker}-KEEEEDSTFTNIS-NH2

T4: SCOC pS12/pT15 LIR peptide (human, phosphoserine at 12; phosphothreonine at 15; biotin-linker on the N-terminus; C-terminal amide)
T4 construct: SCOC isoform 3 aa 6-25; also called S12/T15^SCOC; source: synthetic peptide
T4 peptide: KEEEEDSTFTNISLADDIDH

B1: SCOC aa 6–20 LIR peptide (peptide)
peptide: {Biotin-linker}-KEEEEDSTFTNISLA-NH2
modifications: reading uncertain
notes: SCOC isoform 3 aa 6-20; also called SCOC LIR motif (aa 6–20); source: synthetic peptide
B2: GABARAP (for BLI) (natural protein, human, UniProt O95166 1-117, looked up)
chain: MKFVYKEEHPFEKRRSEGEKIRKKYPDRVPVIVEKAPKARIGDLDKKKYLVPSDLTVGQFYFLIRKRIHLRAEDALFFFVNNVIPPTSATMGQLYQEHHEEDFFLYIAYSDESVYGL
notes: human GABARAP in the pAL plasmid (GST, 3C site)
B3: LC3C (for BLI) (natural protein, human, UniProt Q9BXW4 1-126, looked up)
chain: MPPPQKIPSVRPFKQRKSLAIRQEEVAGIRAKFPNKIPVVVERYPRETFLPPLDKTKFLVPQELTMTQFLSIIRSRMVLRATEAFYLLVNNKSLVSMSATMAEIYRDYKDEDGFVYMTYASQETFG
notes: human LC3C in the pAL plasmid (GST, 3C site)
B4: SCOC aa 6–20/pS18 LIR peptide (peptide)
peptide: {Biotin-linker}-KEEEEDSTFTNI[pS]LA-NH2
modifications: reading uncertain
notes: SCOC isoform 3 aa 6-20; source: synthetic peptide
B5: SCOC WT (aa 6–25) LIR peptide (peptide)
peptide: {Biotin-linker}-KEEEEDSTFTNISLADDIDH-NH2
modifications: reading uncertain
notes: SCOC isoform 3 aa 6-25; also called SCOC (WT) LIR domain peptide; SCOC LIR; source: synthetic peptide

Common to all, as to assay: BLI; biotinylated LIR peptide immobilized on streptavidin biosensor, ATG8 in solution; 25 mM Tris pH 7.5, 150 mM NaCl, 0.5 mM TCEP, 0.1% Tween20, 1 mg/ml BSA; 25 °C; Kd from response against concentration
Common to all, as to details: both partners purified
In general terms: In BLI a coated tip is dipped into the sample, and binding shifts an interference pattern.

Experiment [1] has as its target B3.
Experiment [2] addresses B2.
For experiment [3], the target named is T5, GABARAPL1 (for BLI) (human, UniProt Q9H0R8 1-117).
T5 construct: human GABARAPL1 in the pAL plasmid (GST, 3C site)

Experiment [4] deals with T1, SCOC aa 11–25 LIR peptide.
Experiment [5] concerns the target T2, SCOC pS12 LIR peptide.
Experiment [6] has as its target T3, SCOC aa 6–18 LIR peptide.
The target of experiment [7] is T4, SCOC pS12/pT15 LIR peptide.
For experiment [8], the target named is T6, LC3A (for BLI) (human, UniProt Q9H492 1-121).
T6 construct: human LC3A in the pAL plasmid (GST, 3C site)

The target in experiment [9] is T7, GABARAPL2 (for BLI) (human, UniProt P60520 1-117).
T7 construct: human GABARAPL2 in the pAL plasmid (GST, 3C site)

The target of experiment [10] is LC3B (for BLI) (human, UniProt Q9GZQ8 1-120).

Non-standard residues stand in square brackets, D forms with d. *: point of attachment. Biotin = O=C1N[C@H]2[C@H](CS[C@H]2CCCCC(=O)*)N1; pS = N[C@@H](COP(=O)(O)O)C(=O)O; linker = not defined here

What is called Kd is the concentration at which binding is half-saturated. A high value points to lower affinity.

T7 sequence (P60520 whole entry): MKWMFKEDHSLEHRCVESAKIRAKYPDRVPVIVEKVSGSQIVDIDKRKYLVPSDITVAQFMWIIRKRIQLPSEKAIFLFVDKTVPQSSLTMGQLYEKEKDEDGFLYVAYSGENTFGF

As for B1, the binding result in experiment [1], in [2] and in experiment [3] was “binds” in each case.
Regarding B2, the “fold decrease in affinity against SCOC WT LIR peptide” value in [4] stood at 37 fold; in experiment [6] it was 4 fold. Besides, in [5], the “fold increase in affinity over SCOC WT LIR peptide” value was 2 fold.
Take B3: the “fold decrease in affinity against SCOC WT LIR peptide” value in [4] was determined as 16 fold; in [6] it was 22 fold. For the same molecule, the “fold increase in affinity over SCOC WT LIR peptide” value in experiment [7] was determined as 21 fold.
For B4, the binding result in experiment [1], in [2], in experiment [3] and in experiment [8] was “binds” throughout.
In the case of B5, the Kd in experiment [1] worked out at 8.7 µM; in experiment [2], 3.6 µM; in experiment [9] it was 44.4 µM; in experiment [10] it was 270 µM; in experiment [3] it was 2.3 µM; in experiment [8], 27.8 µM.

The record behind these values is article PMC8202330, “Phosphorylation of the LIR Domain of SCOC Modulates ATG8 Binding Affinity and Specificity” (Journal of Molecular Biology, 2021).
